The assay deals with P116 (residues 30–957), recombinant ectodomain of Mycoplasma pneumoniae P116 (Mycoplasma pneumoniae, UniProt P75556). Nature of the assay: cryo-EM structure.
P116 (residues 30–957), recombinant ectodomain of Mycoplasma pneumoniae P116, sequence (P75556 30-957): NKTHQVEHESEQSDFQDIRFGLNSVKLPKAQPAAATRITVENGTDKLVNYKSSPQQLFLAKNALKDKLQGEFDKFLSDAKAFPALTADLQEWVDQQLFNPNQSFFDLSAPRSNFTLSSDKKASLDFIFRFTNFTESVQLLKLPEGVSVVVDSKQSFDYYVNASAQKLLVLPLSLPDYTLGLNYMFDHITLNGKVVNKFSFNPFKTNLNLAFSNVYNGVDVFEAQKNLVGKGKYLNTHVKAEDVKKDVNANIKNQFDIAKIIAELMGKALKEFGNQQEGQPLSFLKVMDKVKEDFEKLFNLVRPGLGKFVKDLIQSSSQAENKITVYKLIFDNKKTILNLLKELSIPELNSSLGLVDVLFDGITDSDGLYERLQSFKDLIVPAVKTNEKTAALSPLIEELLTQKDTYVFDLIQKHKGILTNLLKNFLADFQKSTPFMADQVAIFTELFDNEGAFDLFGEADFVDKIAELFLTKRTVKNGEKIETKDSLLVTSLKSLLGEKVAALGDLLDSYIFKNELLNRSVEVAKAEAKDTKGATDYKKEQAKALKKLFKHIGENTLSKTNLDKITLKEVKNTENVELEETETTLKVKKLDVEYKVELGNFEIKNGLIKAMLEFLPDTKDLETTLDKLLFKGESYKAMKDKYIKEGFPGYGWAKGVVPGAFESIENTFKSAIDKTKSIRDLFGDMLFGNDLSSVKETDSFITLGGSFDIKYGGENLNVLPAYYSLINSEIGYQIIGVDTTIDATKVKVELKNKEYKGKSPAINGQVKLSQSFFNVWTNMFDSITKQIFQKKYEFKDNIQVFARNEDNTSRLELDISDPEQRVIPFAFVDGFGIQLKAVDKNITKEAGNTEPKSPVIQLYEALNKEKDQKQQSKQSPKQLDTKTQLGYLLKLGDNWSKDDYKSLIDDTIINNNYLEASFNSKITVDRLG

B1: monoclonal antibody (mAb) 3G9 against P116 (antibody, V domains shown)
VH: QVQLQQPGAELVKPGASVKLSCKASGYSFITYWMRWVRQRPGQGLEWIGQINPSNGHTNYDEKFKDRATLTVDKSSTTAYLQLSSLTSDDSAVYFCARSWEAMDYWGQGTSVTVSS
VL: DIVLTQSPATLSVTPGDSVSLSCRASQGISNNLHWYQQKSHESPRLLIKYASQSFSGIPSRFSGSGSGTVFTLTINSVETEDFGVYFCQQSYSWPIFTFGSGTNLQIK
Take B1: the binding result is listed as “binds”.

(Values after paper PMC12708652 (Nature Communications, 2025).)
